Results on 18 molecules are retold here after patent US20200024322A1 (Eli Lilly, published 2020).

Positions count from the first letter of the chain named.

Sequences and labels used below:
B1: (D-Tyr)-Aib-EGTFTSDYSI-αMeL-LD-Orn-K((2-[2-(2-Amino-ethoxy)-ethoxy]-acetyl)2-(c-Glu)-CO-(CH2)18-CO2H)AQ-Aib-EFIEYLIAGGPSSG-NH2 (peptide)
peptide: XXEGTFTSDYSIXLDXKAQXEFIEYLIAGGPSSG
modifications: D-Tyr1; Aib2; αMeL13; Orn16; K17 conjugated to (2-[2-(2-Amino-ethoxy)-ethoxy]-acetyl)2-(c-Glu)-CO-(CH2)18-CO2H ('c-Glu' as printed, presumably γ-Glu); Aib20; C-terminal amide (NH2)
B2: Y-Aib-EGTFTSDYSI-αMeL-LDKK((2[2-(2-Amino-ethoxy)-ethoxy]-acetyl)2-(γ-Glu)-CO-(CH2)18-CO2H)AQ-Aib-EFIE-αMeY-LIAGGPSSGAPPPS-NH2 (peptide)
peptide: YXEGTFTSDYSIXLDKKAQXEFIEXLIAGGPSSGAPPPS
modifications: Aib2; αMeL13; K17 conjugated to (2-[2-(2-Amino-ethoxy)-ethoxy]-acetyl)2-(γ-Glu)-CO-(CH2)18-CO2H; Aib20; αMeY25; C-terminal amide (NH2)
B3: (D-Tyr)-Aib-EGTFTSDYSI-αMeL-LDKK((2-[2-(2-Amino-ethoxy)-ethoxy]-acetyl)-(γ-Glu)-CO-(CH2)18-CO2H)AQ-Aib-EFIE-αMeY-LIAGGPSSGAPPPS-NH2 (peptide)
peptide: B2 peptide with Y1X
modifications: D-Tyr1; Aib2; αMeL13; K17 conjugated to (2-[2-(2-Amino-ethoxy)-ethoxy]-acetyl)-(γ-Glu)-CO-(CH2)18-CO2H; Aib20; αMeY25; C-terminal amide (NH2)
B4: (D-Tyr)-Aib-EGTFTSDYSI-αMeL-LDKK((2-[2-(2-Amino-ethoxy)-ethoxy]-acetyl)2-(γ-Glu)-CO-(CH2)18-CO2H)AQ-Aib-EFIE-αMeY-LIEGGPSSGAPPPS-NH2 (peptide)
peptide: B2 peptide with Y1X, A28E
modifications: D-Tyr1; Aib2; αMeL13; K17 conjugated to (2-[2-(2-Amino-ethoxy)-ethoxy]-acetyl)2-(γ-Glu)-CO-(CH2)18-CO2H; Aib20; αMeY25; C-terminal amide (NH2)
B5: (D-Tyr)-Aib-EGTFTSDYSI-αMeL-LDKK((2-[2-(2-Amino-ethoxy)-ethoxy]-acetyl)2-(γ-Glu)-CO-(CH2)16-CO2H)AQ-Aib-EFIE-αMeY-LIAGGPSSGAPPPS-NH2 (peptide)
peptide: B2 peptide with Y1X
modifications: D-Tyr1; Aib2; αMeL13; K17 conjugated to (2-[2-(2-Amino-ethoxy)-ethoxy]-acetyl)2-(γ-Glu)-CO-(CH2)16-CO2H; Aib20; αMeY25; C-terminal amide (NH2)
B6: (D-Tyr)-Aib-EGTFTSDYSI-αMeL-LD-Orn-K((2-[2-(2-Amino-ethoxy)-ethoxy]-acetyl)2-(γ-Glu)-CO-(CH2)18-CO2H)AQ-Aib-AFV-(D-Glu)-YLIAGGPSSGAPPPS-NH2 (peptide)
peptide: XXEGTFTSDYSIXLDXKAQXAFVXYLIAGGPSSGAPPPS
modifications: D-Tyr1; Aib2; αMeL13; Orn16; K17 conjugated to (2-[2-(2-Amino-ethoxy)-ethoxy]-acetyl)2-(γ-Glu)-CO-(CH2)18-CO2H; Aib20; D-Glu24; C-terminal amide (NH2)
B7: (D-Tyr)-Aib-EGTFTSDYSI-αMeL-LDKK((2-[2-(2-Amino-ethoxy)-ethoxy]-acetyl)-(γ-Glu)-CO-(CH2)18-CO2H)AQ-Aib-AFIE-αMeY-LIAGGPSSGAPPPS-NH2 (peptide)
peptide: B2 peptide with Y1X, E21A
modifications: D-Tyr1; Aib2; αMeL13; K17 conjugated to (2-[2-(2-Amino-ethoxy)-ethoxy]-acetyl)-(γ-Glu)-CO-(CH2)18-CO2H; Aib20; αMeY25; C-terminal amide (NH2)
B8: (D-Tyr)-Aib-EGTFTSDYSI-αMeL-LDKK((2-[2-(2-Amino-ethoxy)-ethoxy]-acetyl)-(γ-Glu)-CO-(CH2)18-CO2H)AQ-Aib-EFIEYLIAGGPSSGAPPPS-NH2 (peptide)
peptide: B2 peptide with Y1X, X25Y
modifications: D-Tyr1; Aib2; αMeL13; K17 conjugated to (2-[2-(2-Amino-ethoxy)-ethoxy]-acetyl)-(γ-Glu)-CO-(CH2)18-CO2H; Aib20; C-terminal amide (NH2)
B9: (D-Tyr)-Aib-EGTFTSDYSI-αMeL-LD-Orn-K((2-[2-(2-Amino-ethoxy)-ethoxy]-acetyl)2-(γ-Glu)-CO-(CH2)18-CO2H)AQ-Aib-DFIEYLIAGGPSSGAPPPS-NH2 (peptide)
peptide: B6 peptide with A21D, V23I, X24E
modifications: D-Tyr1; Aib2; αMeL13; Orn16; K17 conjugated to (2-[2-(2-Amino-ethoxy)-ethoxy]-acetyl)2-(γ-Glu)-CO-(CH2)18-CO2H; Aib20; C-terminal amide (NH2)
B10: (D-Tyr)-Aib-EGTFTSDYSI-αMeL-LD-Orn-K((2-[2-(2-Amino-ethoxy)-ethoxy]-acetyl)-(γ-Glu)-CO-(CH2)18-CO2H)AQ-Aib-EFIEYLIAGGPSSGAPPPS-NH2 (peptide)
peptide: B6 peptide with A21E, V23I, X24E
modifications: D-Tyr1; Aib2; αMeL13; Orn16; K17 conjugated to (2-[2-(2-Amino-ethoxy)-ethoxy]-acetyl)-(γ-Glu)-CO-(CH2)18-CO2H; Aib20; C-terminal amide (NH2)
B11: (D-Tyr)-Aib-EGTFTSDYSI-αMeL-LDKK((2-[2-(2-Amino-ethoxy)-ethoxy]-acetyl)2-(γ-Glu)-CO-(CH2)16-CO2H)AQ-Aib-AFIE-αMeY-LIAGGPSSGAPPPS-NH2 (peptide)
peptide: B2 peptide with Y1X, E21A
modifications: D-Tyr1; Aib2; αMeL13; K17 conjugated to (2-[2-(2-Amino-ethoxy)-ethoxy]-acetyl)2-(γ-Glu)-CO-(CH2)16-CO2H; Aib20; αMeY25; C-terminal amide (NH2)
B12: (D-Tyr)-Aib-EGTFTSDYSI-αMeL-LD-Orn-K((2-[2-(2-Amino-ethoxy)-ethoxy]-acetyl)2-(γ-Glu)-CO-(CH2)16-CO2H)AQ-Aib-AFV-(D-Glu)-YLIAGGPSSGAPPPS-NH2 (peptide)
peptide: B6 peptide
modifications: D-Tyr1; Aib2; αMeL13; Orn16; K17 conjugated to (2-[2-(2-Amino-ethoxy)-ethoxy]-acetyl)2-(γ-Glu)-CO-(CH2)16-CO2H; Aib20; D-Glu24; C-terminal amide (NH2)
B13: (D-Tyr)-Aib-EGTFTSDYSI-αMeL-LD-Orn-K((2-[2-(2-Amino-ethoxy)-ethoxy]-acetyl)2-(γ-Glu)-CO-(CH2)16-CO2H)AQ-Aib-EFIEYLIAGGPSSGAPPPS-NH2 (peptide)
peptide: B6 peptide with A21E, V23I, X24E
modifications: D-Tyr1; Aib2; αMeL13; Orn16; K17 conjugated to (2-[2-(2-Amino-ethoxy)-ethoxy]-acetyl)2-(γ-Glu)-CO-(CH2)16-CO2H; Aib20; C-terminal amide (NH2)
B14: (D-Tyr)-Aib-EGTFTSDYSI-αMeL-LD-Orn-K((2-[2-(2-Amino-ethoxy)-ethoxy]-acetyl)2-(D-(γ-Glu)-CO-(CH2)16-CO2H)AQ-Aib-AFI-Glu)-YLIAGGPSSGAPPPS-NH2 (peptide)
peptide: B6 peptide with V23I
modifications: D-Tyr1; Aib2; αMeL13; Orn16; K17 conjugated to (2-[2-(2-Amino-ethoxy)-ethoxy]-acetyl)2-(γ-Glu)-CO-(CH2)16-CO2H; Aib20; C-terminal amide (NH2)
B15: (D-Tyr)-Aib-EGTFTSDYSI-αMeL-LD-Orn-K((2-[2-(2-Amino-ethoxy)-ethoxy]-acetyl)2-(γ-Glu)-CO-(CH2)16-CO2H)AQ-Aib-EFIE-αMeY-LIAGGPSSGAPPPS-NH2 (peptide)
peptide: B2 peptide with Y1X, K16X
modifications: D-Tyr1; Aib2; αMeL13; Orn16; K17 conjugated to (2-[2-(2-Amino-ethoxy)-ethoxy]-acetyl)2-(γ-Glu)-CO-(CH2)16-CO2H; Aib20; αMeY25; C-terminal amide (NH2)
B16: (D-Tyr)-Aib-EGTFTSDYSI-αMeL-LD-Orn-K((2-[2-(2-Amino-ethoxy)-ethoxy]-acetyl)2-(γ-Glu)-CO-(CH2)16-CO2H)AQ-Aib-AFIE-αMeY-LIAGGPSSGAPPPS-NH2 (peptide)
peptide: B6 peptide with V23I, X24E, Y25X
modifications: D-Tyr1; Aib2; αMeL13; Orn16; K17 conjugated to (2-[2-(2-Amino-ethoxy)-ethoxy]-acetyl)2-(γ-Glu)-CO-(CH2)16-CO2H; Aib20; αMeY25; C-terminal amide (NH2)
B17: (D-Tyr)-Aib-EGTFTSDYSI-αMeL-LD-Orn-K((2-[2-(2-Amino-ethoxy)-ethoxy]-acetyl)2-(γ-Glu)-CO-(CH2)18-CO2H)AQ-Aib-AFIE-αMeY-LIAGGPSSGAPPPS-NH2 (peptide)
peptide: B6 peptide with V23I, X24E, Y25X
modifications: D-Tyr1; Aib2; αMeL13; Orn16; K17 conjugated to (2-[2-(2-Amino-ethoxy)-ethoxy]-acetyl)2-(γ-Glu)-CO-(CH2)18-CO2H; Aib20; αMeY25; C-terminal amide (NH2)
B18: (D-Tyr)-Aib-EGTFTSDYSI-αMeL-LDKK((2-[2-(2-Amino-ethoxy)-ethoxy]-acetyl)2-(γ-Glu)-CO-(CH2)18-CO2H)AQ-Aib-AFIE-αMeY-LIAGGPSSGAPPPS-NH2 (peptide)
peptide: B2 peptide with Y1X, E21A
modifications: D-Tyr1; Aib2; αMeL13; K17 conjugated to (2-[2-(2-Amino-ethoxy)-ethoxy]-acetyl)2-(γ-Glu)-CO-(CH2)18-CO2H; Aib20; αMeY25; C-terminal amide (NH2)

For the first assay, the target named is T1, human gastric inhibitory peptide receptor (GIPR) (human, UniProt P48546 22-466).
T1 sequence (looked up): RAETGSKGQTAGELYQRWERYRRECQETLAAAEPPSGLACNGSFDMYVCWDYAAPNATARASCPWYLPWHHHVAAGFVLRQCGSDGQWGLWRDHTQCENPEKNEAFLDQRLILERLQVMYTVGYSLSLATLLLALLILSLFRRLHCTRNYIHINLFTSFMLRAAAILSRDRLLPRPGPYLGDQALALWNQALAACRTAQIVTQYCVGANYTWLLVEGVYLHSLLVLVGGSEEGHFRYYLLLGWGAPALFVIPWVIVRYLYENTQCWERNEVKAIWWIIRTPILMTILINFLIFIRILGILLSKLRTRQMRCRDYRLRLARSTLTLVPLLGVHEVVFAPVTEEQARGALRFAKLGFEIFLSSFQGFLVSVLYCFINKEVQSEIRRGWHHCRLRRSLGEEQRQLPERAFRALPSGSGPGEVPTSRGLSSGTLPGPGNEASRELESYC
The assay can be described thus: cell-based or functional assay.
Turning to B1, the “hGIPR cAMP EC50 ratio” value was found to be 0.704.
The same measure, in the same setting: the figure for B2 is 5.85.
Same read-out and setting: as for B3, the figure is 0.68; as for B4, 0.672.
On the same count and under the same terms, as for B5, the figure is 1.76; as for B6, 0.347.
With B7, the “hGIPR cAMP EC50 ratio” value was 0.287.
As to B8, the “hGIPR cAMP EC50 ratio” value was 0.793.
The same measure, in the same setting: the figure for B9 is 0.499; for B10 it is 0.393.
The same measure, in the same setting: the figure for B11 is 0.734; for B12 it is 0.347.
Take B13: the “hGIPR cAMP EC50 ratio” value turned out to be 0.109.
On the same count and under the same terms, as for B14, the figure is 0.835; as for B15, 1.13; as for B16, 0.976.
For B17, the “hGIPR cAMP EC50 ratio” value was 0.598.
With B18, the “hGIPR cAMP EC50 ratio” value is 0.784.

Another assay concerns the target human GLP-1 receptor (GLP-1R) (human, UniProt P43220 24-463). The assay can be described thus: cell-based or functional assay.
As to B1, the “hGLP1R cAMP EC50 ratio” value was found to be 0.172.
The same measure, in the same setting: the figure for B2 is 0.386.
Take B3: the “hGLP1R cAMP EC50 ratio” value was 0.0741.
Same read-out and setting: the figure for B4 is 0.114; for B5 it is 0.169; for B6 it is 0.0805.
For B7, the “hGLP1R cAMP EC50 ratio” value was determined as 0.0621.
The same measure, in the same setting: as for B8, the figure is 0.142; as for B9, 0.319.
Regarding B10, the “hGLP1R cAMP EC50 ratio” value came to 0.206.
B11: the “hGLP1R cAMP EC50 ratio” value came to 0.159.
Same read-out and setting: the figure for B12 is 0.0303; for B13 it is 0.299; for B14 it is 0.146.
Still for that read-out and setting: as for B15, the figure is 0.178.
Same read-out and setting: the figure for B16 is 0.199; for B17 it is 0.074; for B18 it is 0.155.
